{"source": "patent US20230374147A1", "about": "(HUMMINGBIRD BIOSCIENCE PTE, published 2023)", "key": {"[1]": {"target": "T1, His-tagged human BCMA (Acro Biosystems, Cat. #BCA-H522y) (human, UniProt Q02223 1-54)", "T1 construct": "also called huBCMA; P1; not shown: His tag", "T1 sequence": "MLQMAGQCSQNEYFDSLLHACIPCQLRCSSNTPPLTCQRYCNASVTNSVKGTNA", "test": "BLI, His-tagged human BCMA on HIS1K tip"}, "[2]": {"target": "T2, His-tagged mouse BCMA (Acro Biosystems, BCA-M52H3) (mouse, UniProt O88472 1-49)", "T2 construct": "Bought protein; not shown: His tag", "T2 chain": "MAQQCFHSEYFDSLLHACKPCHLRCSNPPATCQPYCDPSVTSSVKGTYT", "test": "BLI, His-tagged mouse BCMA on HIS1K tip; R2 0.9322"}, "[3]": {"target": "T3, human BCMA expressed on cells (human, UniProt Q02223 1-184)", "T3 construct": "the cell line is named under assay; also called wildtype human BCMA", "T3 sequence": "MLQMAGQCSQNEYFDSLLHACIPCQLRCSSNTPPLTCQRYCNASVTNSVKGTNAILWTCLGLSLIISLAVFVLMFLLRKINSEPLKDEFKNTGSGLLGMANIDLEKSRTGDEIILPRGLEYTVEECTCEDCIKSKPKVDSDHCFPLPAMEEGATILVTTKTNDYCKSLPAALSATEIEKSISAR", "test": "flow cytometry, H929 cells (BCMA-expressing)"}, "[4]": {"target": "T1, His-tagged human BCMA (Acro Biosystems, …)", "test": "BLI, His-tagged human BCMA on HIS1K tip; R2 0.9901"}, "[5]": {"target": "T4, His-tagged cynomolgous macaque BCMA (Acro Biosystems, BCA-C52H7) (cynomolgus macaque, UniProt Q02223 1-54 (human entry))", "T4 construct": "Bought protein; also called cyno BCMA; CyBCMA; not shown: His tag", "test": "BLI, His-tagged cynomolgus BCMA on HIS1K tip"}, "[6]": {"target": "T5, cynomolgous macaque BCMA expressed on CHOK1 cells", "T5 construct": "also called cyno BCMA on cells", "test": "flow cytometry, CHOK1 cells transiently expressing cynomolgus BCMA"}, "[7]": {"target": "T2, His-tagged mouse BCMA (Acro Biosystems, …)", "test": "BLI, His-tagged mouse BCMA on HIS1K tip"}, "[8]": {"target": "T4, His-tagged cynomolgous macaque BCMA …", "test": "BLI, His-tagged cynomolgus BCMA on HIS1K tip; R2 0.9501"}, "[9]": {"target": "T1, His-tagged human BCMA (Acro Biosystems, …)", "test": "BLI, His-tagged human BCMA on HIS1K tip, no APRIL; R2 0.9901"}, "[10]": {"target": "T3, human BCMA expressed on cells", "test": "flow cytometry, HEK293 cells stably expressing human BCMA"}, "[11]": {"target": "T1, His-tagged human BCMA (Acro Biosystems, …)", "test": "BLI, His-tagged human BCMA on HIS1K tip; R2 0.9919"}, "[12]": {"target": "T3, human BCMA expressed on cells", "test": "flow cytometry, HEK 293 cells expressing human BCMA"}, "[13]": {"target": "T6, recombinant his-tagged human TACI (Sinobiological cat #11937-H08H) (human, UniProt O14836 1-165)", "T6 construct": "Bought protein; also called Human TACI-His; huTACI; not shown: His tag", "T6 sequence": "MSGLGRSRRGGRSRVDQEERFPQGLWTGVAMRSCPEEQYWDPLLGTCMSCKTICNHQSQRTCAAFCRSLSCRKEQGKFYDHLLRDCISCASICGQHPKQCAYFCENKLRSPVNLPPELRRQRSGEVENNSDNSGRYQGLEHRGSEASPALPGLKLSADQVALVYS", "test": "ELISA, coated His-tagged human TACI"}, "[14]": {"target": "T6, recombinant his-tagged human TACI …", "test": "ELISA, coated His-tagged human TACI", "remark": "listed apart in the source"}, "[15]": {"target": "T1, His-tagged human BCMA (Acro Biosystems, …)", "test": "competition ELISA: His-tagged human BCMA binding to coated APRIL-Fc in the presence of the antibody"}, "[16]": {"target": "T7, human TACI expressed on cells (human, UniProt O14836 1-293)", "T7 construct": "also called wildtype human TACI", "T7 sequence": "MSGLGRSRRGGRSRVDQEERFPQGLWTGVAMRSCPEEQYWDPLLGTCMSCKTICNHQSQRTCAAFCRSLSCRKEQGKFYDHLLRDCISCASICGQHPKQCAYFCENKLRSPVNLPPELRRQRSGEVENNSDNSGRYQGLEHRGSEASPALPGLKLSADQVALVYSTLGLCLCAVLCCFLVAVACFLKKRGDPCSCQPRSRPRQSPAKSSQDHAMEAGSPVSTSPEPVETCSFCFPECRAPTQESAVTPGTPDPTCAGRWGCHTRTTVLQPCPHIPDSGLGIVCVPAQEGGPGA", "test": "flow cytometry, HEK 293 cells expressing human TACI"}, "[17]": {"target": "T5, cynomolgous macaque BCMA expressed on …", "test": "flow cytometry, CHOK1 cells transiently expressing cynomolgus BCMA", "remark": "listed apart in the source"}, "[18]": {"target": "T8, BCMA Mut (human, UniProt Q02223 1-184)", "T8 construct": "Expressed on HEK293T cells; also called human BCMA comprising the substitutions Y13A, D15A, L17G and L18G", "T8 chain": "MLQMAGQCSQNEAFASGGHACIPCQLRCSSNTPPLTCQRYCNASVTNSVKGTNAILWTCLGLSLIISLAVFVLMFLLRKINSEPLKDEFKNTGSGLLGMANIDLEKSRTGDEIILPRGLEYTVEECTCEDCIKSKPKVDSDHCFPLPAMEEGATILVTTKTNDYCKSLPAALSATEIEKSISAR", "test": "flow cytometry on HEK293T cells expressing BCMA Mut"}, "[19]": {"target": "T3, human BCMA expressed on cells", "test": "flow cytometry, H929 cells (BCMA-expressing)", "remark": "listed apart in the source"}, "[20]": {"target": "T1, His-tagged human BCMA (Acro Biosystems, …)", "test": "ELISA, coated His-tagged human BCMA"}, "[21]": {"target": "T4, His-tagged cynomolgous macaque BCMA …", "test": "BLI, His-tagged cynomolgus BCMA on HIS1K tip; R2 0.9022"}, "[22]": {"target": "T2, His-tagged mouse BCMA (Acro Biosystems, …)", "test": "BLI, His-tagged mouse BCMA on HIS1K tip; R2 0.9686"}, "[23]": {"target": "T1, His-tagged human BCMA (Acro Biosystems, …)", "test": "BLI, His-tagged human BCMA on HIS1K tip, no APRIL; R2 0.9919"}, "[24]": {"target": "T1, His-tagged human BCMA (Acro Biosystems, …)", "test": "ELISA, coated His-tagged human BCMA", "remark": "listed apart in the source"}, "[25]": {"target": "T3, human BCMA expressed on cells", "test": "flow cytometry, HEK293 cells stably expressing human BCMA", "remark": "listed apart in the source"}, "[26]": {"target": "T4, His-tagged cynomolgous macaque BCMA …", "test": "ELISA, coated His-tagged cynomolgus BCMA"}, "[27]": {"target": "T4, His-tagged cynomolgous macaque BCMA …", "test": "BLI, His-tagged cynomolgus BCMA on HIS1K tip; R2 0.9625"}, "[28]": {"target": "T6, recombinant his-tagged human TACI …", "test": "ELISA, coated His-tagged human TACI", "remark": "listed apart in the source"}, "[29]": {"target": "T1, His-tagged human BCMA (Acro Biosystems, …)", "test": "BLI, His-tagged human BCMA on HIS1K tip; R2 0.9973"}}, "note": "Like-named read-outs stand apart in the source and are kept apart here."}
{"binder": "539-SP5-D7 hIgG1 (antibody, V domains shown, Human-mouse chimeric antibody, human IgG1 format, lambda light chain; also called [4]) VH: EVMLVDSGGNLVKPGGSLKLSCAASGFTFSNYVISWVRQTPEKRLEWVATISTVGTNTYYPDSVRGRFTISRDNAENTLYLQMSSLRSEDTAIYYCSRHKYGYDDPSYAMDYWGQGTSVTVSS VL: QLVLTQSSSASFSLGASAKLTCTLSSQHSTYTIEWYQQQPLKPPKYVMELKKDGSHSTGDGIPDRFSGSSSGADRYLSISNIQAEDEAIYICGVGDTVKEQFVYVFGGGTKVTVLG", "values": [{"measurement": "Human BCMA response", "setting": "[1]", "value": 2.14}, {"measurement": "Kd", "setting": "[2]", "value": 4.86, "unit": "nM"}, {"measurement": "EC50 (read off the curve)", "setting": "[3]", "value": "~0.3", "unit": "µg/mL"}, {"measurement": "Kd", "setting": "[4]", "value": "< 0.001", "unit": "nM"}, {"measurement": "Cyno BCMA response", "setting": "[5]", "value": 0.265}, {"measurement": "binding result", "setting": "[6]", "value": "binds"}, {"measurement": "Mouse BCMA response", "setting": "[7]", "value": 1.01}, {"measurement": "Kd", "setting": "[8]", "value": 167, "unit": "nM"}, {"measurement": "Kd", "setting": "[9]", "value": "< 0.001", "unit": "nM"}]}
{"binder": "538-SP5-B10 hIgG1 (antibody, V domains shown, Human-mouse chimeric antibody, human IgG1 format) VH: EVQLQQSGPELVKPGASVKMSCKASGYTFTSYVMHWVKQKPGRGLEWIAYILPFNDVTKYNEKFKGKATLTSDKSSNTAYMELSSLTSEDSAVYYCARWEWDDGYFDYWGQGTTLTVSS VL: DAVMTQTPLSLPVSLGDQASISCRSSQSLENSNGNTYLNWYLQKPGQSPQLLIYRVSNRFSGVLDRFSGSGSGTDFTLKISRVEAEDLGVYFCLQVSHVPFTFGAGTKLELKR", "values": [{"measurement": "EC50 (read off the curve)", "setting": "[10]", "value": "~0.03", "unit": "µg/mL"}, {"measurement": "Kd", "setting": "[11]", "value": "< 0.001", "unit": "nM"}, {"measurement": "EC50", "setting": "[12]", "value": 0.21, "unit": "nM"}, {"measurement": "Human BCMA response", "setting": "[1]", "value": 2.35}, {"measurement": "EC50", "setting": "[13]", "value": 2.53, "unit": "nM"}, {"measurement": "EC50 (read off the curve)", "setting": "[3]", "value": "~0.03", "unit": "µg/mL"}, {"measurement": "EC50 (read off the curve)", "setting": "[14]", "value": "~0.4", "unit": "µg/mL"}, {"measurement": "IC50", "setting": "[15]", "value": 0.39, "unit": "nM"}, {"measurement": "EC50", "setting": "[16]", "value": 24.1, "unit": "nM"}, {"measurement": "Cyno BCMA response", "setting": "[5]", "value": 0.895}, {"measurement": "binding result", "setting": "[17]", "value": "binds"}, {"measurement": "binding result", "setting": "[18]", "value": "no binding"}, {"measurement": "EC50 (read off the curve)", "setting": "[19]", "value": "~1", "unit": "nM"}, {"measurement": "EC50 (read off the curve)", "setting": "[20]", "value": "~0.01", "unit": "µg/mL"}, {"measurement": "Mouse BCMA response", "setting": "[7]", "value": 1.31}, {"measurement": "Kd", "setting": "[21]", "value": 31.4, "unit": "nM"}, {"measurement": "Kd", "setting": "[22]", "value": 47.5, "unit": "nM"}, {"measurement": "Kd", "setting": "[23]", "value": "< 0.001", "unit": "nM"}, {"measurement": "EC50", "setting": "[24]", "value": 0.085, "unit": "nM"}]}
{"binder": "552-LN2-F8 hIgG1 (antibody, V domains shown, Human-mouse chimeric antibody, human IgG1 format; also called [9]) VH: QIQLVQSGPELKKPGETVKISCKASGYTFTDYTMYWVKQAPGKGLKWMGWINTETGEPTYADDFKGRFVFSLETSANTAYLQINNLKNEDTATYFCAISYYYGMDYWGQGTSVTVTS VL: DIILTQSPASLAVSLGQRATITCRASKSVSTSGYNFVYWYQQKPGQPPKLLIYLASNLESGVPARFSGSGSGTDFTLNIHPVEEEDAATYYCQHSRELPRTFGGGTKLEIKR", "values": [{"measurement": "EC50 (read off the curve)", "setting": "[25]", "value": "~0.5", "unit": "µg/mL"}, {"measurement": "Human BCMA response", "setting": "[1]", "value": 2.31}, {"measurement": "EC50 (read off the curve)", "setting": "[26]", "value": "~0.08", "unit": "µg/mL"}, {"measurement": "EC50 (read off the curve)", "setting": "[3]", "value": "~0.1", "unit": "µg/mL"}, {"measurement": "Cyno BCMA response", "setting": "[5]", "value": 1.58}, {"measurement": "binding result", "setting": "[6]", "value": "binds"}, {"measurement": "Kd", "setting": "[27]", "value": 59.8, "unit": "nM"}, {"measurement": "binding result", "setting": "[28]", "value": "no binding (tested: 10 ug/ml)"}, {"measurement": "Kd", "setting": "[9]", "value": "< 0.001", "unit": "nM"}, {"measurement": "Kd", "setting": "[29]", "value": "< 0.001", "unit": "nM"}]}
